The source of these data is US6410248.

Broadly, the Kd is the concentration at which binding is half-saturated. Lower therefore signals a tighter complex.

The target of this data set is Zif268 zinc fingers 1-3 (wild type) (UniProt P08046 SEQ:1-90). In words: EMSA; 15 mM Hepes-NaOH pH 7.9, 50 mM KCl, 50 mM K glutamate, 50 mM K acetate, 5 mM MgCl2, 20 uM ZnSO4, no competitor DNA. On the technique in general: In EMSA bound probe runs differently from free probe, usually more slowly.

B1: Zif268 site (dsDNA)
DNA 1: CCAGTAGCGGGGGCGTCCTCG
DNA 2: CGAGGACGCCCCCGCTACTGG
Molecule B1 had a dissociation constant (Kd) of 0.01 nM.
